Assay results from patent US11643467 (dated 2023).

Tests used:
Test in all cases: ELISA
FGFR2-Fc = FGFR2-Fc (human, UniProt P21802)
FGFR1-Fc = target: T1, FGFR1-Fc (human, UniProt P11362)
T1 chain: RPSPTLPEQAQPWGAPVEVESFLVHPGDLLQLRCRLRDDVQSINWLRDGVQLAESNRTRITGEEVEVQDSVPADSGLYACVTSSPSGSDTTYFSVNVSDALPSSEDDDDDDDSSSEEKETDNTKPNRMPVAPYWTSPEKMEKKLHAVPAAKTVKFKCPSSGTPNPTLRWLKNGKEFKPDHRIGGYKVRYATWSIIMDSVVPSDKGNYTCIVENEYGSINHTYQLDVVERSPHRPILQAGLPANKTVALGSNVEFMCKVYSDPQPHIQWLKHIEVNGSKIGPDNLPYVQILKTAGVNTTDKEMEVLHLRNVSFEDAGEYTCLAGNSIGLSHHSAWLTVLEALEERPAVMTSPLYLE

FGFR3-Fc = target: T2, FGFR3-Fc (human, UniProt P22607)
T2 chain: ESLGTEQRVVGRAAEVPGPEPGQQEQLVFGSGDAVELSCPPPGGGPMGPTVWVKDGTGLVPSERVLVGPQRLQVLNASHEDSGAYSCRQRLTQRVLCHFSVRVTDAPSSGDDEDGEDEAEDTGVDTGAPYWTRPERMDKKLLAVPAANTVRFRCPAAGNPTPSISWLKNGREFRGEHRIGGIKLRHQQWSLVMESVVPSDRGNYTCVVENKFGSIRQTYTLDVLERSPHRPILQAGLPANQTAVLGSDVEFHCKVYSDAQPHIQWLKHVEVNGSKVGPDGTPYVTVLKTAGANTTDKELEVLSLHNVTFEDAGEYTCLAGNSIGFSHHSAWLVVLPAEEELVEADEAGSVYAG

Sequence of FGFR2-Fc (P21802 22-377): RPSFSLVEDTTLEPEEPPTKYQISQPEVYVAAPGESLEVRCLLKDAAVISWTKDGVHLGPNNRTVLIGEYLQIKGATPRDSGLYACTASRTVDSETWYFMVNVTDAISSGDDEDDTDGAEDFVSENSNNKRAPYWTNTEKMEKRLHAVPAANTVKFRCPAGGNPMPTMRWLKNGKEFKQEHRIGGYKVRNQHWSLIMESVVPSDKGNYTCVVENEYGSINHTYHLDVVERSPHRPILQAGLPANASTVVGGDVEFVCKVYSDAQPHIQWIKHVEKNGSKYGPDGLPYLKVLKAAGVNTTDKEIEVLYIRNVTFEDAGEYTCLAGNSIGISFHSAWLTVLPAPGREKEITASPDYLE

binding result (FGFR2-Fc): no binding | binding result (FGFR1-Fc): no binding | binding result (FGFR3-Fc): no binding
B1: ch3B6 (antibody, V domains shown)
VH: EVQLVESGGGLVQPGRSLKLSCAASGFTFSNYYMAWVRQAPKKGLEWVATINPSGTRTYYPDSVKGRFTLSRDSAKSSLYLQMNSLKSEDTATFYCARLYNNYAFDYWGQGVMVTVSS
VL: DVQMTQSPALAVSPGERVSISCRASESVSTLMHWYQQKPGQQPKLLIYGTSNLESGVPARFSGSGSGTDFTLNIDPVEADDTATYFCQQSWNDPPTFGGGTKLELK
